Source: US20260077071A1, “Targeted Delivery of Theranostic Agents” (Peter MacCallum Cancer Institute, priority 2022, published 2026)
Square brackets hold non-standard residues; d marks the D form. Peptide text beside a SMILES is read from it. * marks the point of attachment. DOTA = O=C(O)CN1CCN(CC(=O)O)CCN(CC(=O)*)CCN(CC(=O)O)CC1; NMe1Nal = CN[C@@H](Cc1cccc2ccccc12)C(=O)O; 1Nal = N[C@@H](Cc1cccc2ccccc12)C(=O)O; NMeF = CN[C@@H](Cc1ccccc1)C(=O)O; NMeNle = CCCC[C@H](NC)C(=O)O; Sar = CNCC(=O)O

How the values were obtained:
[1] = LogD7.4 determination (PBS pH 7.4 / n-octanol); format: physicochemical; conditions: PBS/Octanol mix, n = 5
Procedure: The distribution coefficients (LogD7.4) of radiolabelled compounds [^68Ga]Ga-1-4, and [^68Ga]Ga-Cmp ex-2 were assayed by measuring radioactivity distribution in the aqueous phase (phosphate buffer pH7.4) and the organic phase (n-octanol). To determine the distribution coefficient (LogD), Ga-68 radiolabelled compounds were diluted to 20 pmol/mL in PBS (pH 7.4) and an equal volume of n-octanol was added. The mixture was vortexed vigorously for 10 cycles of 1 min at room temperature before being centrifuged for 6 min to separate the two phases. Equal volumes from each phase were aliquoted into individual counting tubes and analysed for 1 min using the Perkin Elmer 2480 Wizard2™ gamma counter (PerkinElmer, Massachusetts, USA). The distribution coefficient was calculated using the following equation [formula]

in vitro = in vitro ADME, mouse; conditions: for remaining at 1.5 h: mouse, pH 7.3
Procedure: Drug detoxification, drug metabolism and metabolic stability are important determinants of the efficacy of theranostic candidates in clinical settings. To assess metabolic stability, radiolabelled Compounds [^68Ga]Ga-1-4 and comparative example-2 ([^68Ga]Ga-Cmp ex-2) were challenged by incubation in either human serum, mouse liver or kidney homogenates and HEPES buffer as a negative control. Duplicate samples (750-900 pmol/mL) were incubated at 37° C. with pooled human serum, 15% mouse kidney homogenate, 30% mouse liver homogenate or 20 mM HEPES, pH 7.3 (control). Human blood was collected and serum prepared using SSTII advance vacutainer tubes according to the manufacturer's instructions (Becton Dickinson, New Jersey, USA). Mouse kidney and liver homogenates were prepared by washing the tissues in ice-cold HEPES buffer, pH 7.3 and placing them in pre-chilled tubes containing HEPES buffer and 2.38 mm metal beads (Mo-Bio Laboratories, Hilden, Germany). Tissues were homogenised using the PowerLyzer24 homogeniser (Qiagen, Hilden, Germany) according to the manufacturer's instructions. Ga-68 radiolabelled peptides were incubated with the various lysates at 37° C. and samples were collected at 15, 30, 60 and 90 min. Reactions were terminated by addition of an equal volume of acetonitrile and centrifugation for 2 min at 15,000 rpm. Supernatants were diluted in water before being analysed by HPLC using a Kinetex C18 XB column (5 μm 4.6×150 mm), eluted at 1.5 mL/min of gradient 20-60% MeCN in water containing 0.1% formic acid over 7 min.

A431 CCK2R cells = tested on: A431 CCK2R cells; design: species or system BALB/c nu/nu mice; conditions: mouse, in vivo, iv
Procedure: The diagnostic efficacy of Compounds [^68Ga]Ga-1-4 and [^68Ga]Ga-Cmp ex-2 was assessed using static small animal PET imaging and quantifying biodistribution studies. Female BALB/c nu/nu mice (age 8-10 weeks) were inoculated subcutaneously on the right flank with 3×10^6 A431 CCK2R cells in PBS:Matrigel (1:1). Mice were weighed and tumours measured twice weekly using electronic callipers with tumour volume (mm^3) calculated as length×width×height×π/6. Mice were assigned to imaging and/or biodistribution groups (tumour volumes: 50-500 mm^3). The respective Ga-68 labelled tracer (4-5 MBq, 100 μL, 13.7-14.2 pmoles) was mixed with vehicle solution (75 μL, DMSO:Tween 80:water, 2:2:6 v/v/v) and then administered to six mice intravenously via tail vein injection. Three mice were euthanised for biodistribution 1 h post injection and selected tissues were excised, weighed and counted using a Capintec (Captus 4000e) gamma counter. Three mice were anaesthetised using 1.5% isoflurane and imaged at 1 and 2 h with a G8 Small Animal PET/CT scanner (Perkin Elmer/Sofie Biosciences). A 10 min static PET scan was acquired, followed immediately by a CT scan. PET images were acquired using the G8 acquisition engine software and reconstructed using a 3D maximal likelihood and expectation maximization (ML-EM) algorithm. PET images were analysed using VivoQuant software, version 3.0 (inviCRO Imaging Services and Software) to quantify maximum standardised uptake value in regions of interest (SUVmax). After imaging the 2 h time point the mice were harvested for biodistribution analysis as above.
For blocking CCK2R binding a solution of N-[(3R)-2,3-Dihydro-1-[2-(2-methylphenyl)-2-oxoethyl]-2-oxo-5-phenyl-1H-1,4-benzodiazepin-3-yl]-N′-(3-methylphenyl)-urea (YM022; Sigma Aldrich) was used. […]

SMILES	LogD7.4 [1]	metabolism in kidney homogenates (in vitro)	metabolism in liver homogenates (in vitro)	remaining at 1.5 h (in vitro; other tissue homogenate)	remaining at 1.5 h (in vitro; tissue homogenate)	renal / kidney uptake (A431 CCK2R cells)	tumour uptake (A431 CCK2R cells)	tumour to kidney ratio (A431 CCK2R cells)
CCCC[C@@H](C(=O)N[C@@H](CC(=O)O)C(=O)N[C@@H](Cc1ccccc1)C(N)=O)N(C)C(=O)[C@H](Cc1c[nH]c2ccccc12)NC(=O)CN(C)C(=O)[C@H](Cc1ccc(O)cc1)NC(=O)[C@H](C)NC(=O)[C@@H](CCC(=O)O)NC(=O)[C@@H](CCC(=O)O)NC(=O)[C@@H](CCC(=O)O)NC(=O)[C@@H](C)NC(=O)[C@@H](CCC(=O)O)NC(=O)[C@@H](CCC(=O)O)NC(=O)CN1CCN(CC(=O)O)CCN(CC(=O)O)CCN(CC(=O)O)CC1 [[^68Ga]Ga-3, metal not drawn] ({DOTA}-[dE][dE][dA][dE][dE][dE]AY[Sar]W[NMeNle]DF-NH2)	−4.06 ± 0.14	significant metabolism	significant metabolism	20%	~35%	–	–	–
CCCC[C@@H](C(=O)N[C@@H](CC(=O)O)C(=O)N[C@@H](Cc1cccc2ccccc12)C(N)=O)N(C)C(=O)[C@H](Cc1c[nH]c2ccccc12)NC(=O)CN(C)C(=O)[C@H](Cc1ccc(O)cc1)NC(=O)[C@H](C)NC(=O)[C@@H](CCC(=O)O)NC(=O)[C@@H](CCC(=O)O)NC(=O)[C@@H](CCC(=O)O)NC(=O)[C@@H](C)NC(=O)[C@@H](CCC(=O)O)NC(=O)[C@@H](CCC(=O)O)NC(=O)CN1CCN(CC(=O)O)CCN(CC(=O)O)CCN(CC(=O)O)CC1 [[^68Ga]Ga-1, metal not drawn] ({DOTA}-[dE][dE][dA][dE][dE][dE]AY[Sar]W[NMeNle]D[1Nal]-NH2)	−2.88 ± 0.09	significant metabolism	significant metabolism	75%	85%	–	–	–
CCCC[C@@H](C(=O)N[C@@H](CC(=O)O)C(=O)N(C)[C@@H](Cc1cccc2ccccc12)C(N)=O)N(C)C(=O)[C@H](Cc1c[nH]c2ccccc12)NC(=O)CN(C)C(=O)[C@H](Cc1ccc(O)cc1)NC(=O)[C@H](C)NC(=O)[C@@H](CCC(=O)O)NC(=O)[C@@H](CCC(=O)O)NC(=O)[C@@H](CCC(=O)O)NC(=O)[C@@H](CCC(=O)O)NC(=O)[C@@H](CCC(=O)O)NC(=O)[C@@H](CCC(=O)O)NC(=O)CN1CCN(CC(=O)O)CCN(CC(=O)O)CCN(CC(=O)O)CC1 [[^68Ga]Ga-Cmp ex-2, metal not drawn, reference compound] ({DOTA}-[dE][dE][dE][dE][dE][dE]AY[Sar]W[NMeNle]D[NMe1Nal]-NH2)	−2.97 ± 0.13	no observable metabolites detected	no observable metabolites detected	–	–	highest renal uptake	best tumour uptake	–
CCCC[C@@H](C(=O)N[C@@H](CC(=O)O)C(=O)N(C)[C@@H](Cc1ccccc1)C(N)=O)N(C)C(=O)[C@H](Cc1c[nH]c2ccccc12)NC(=O)CN(C)C(=O)[C@H](Cc1ccc(O)cc1)NC(=O)[C@H](C)NC(=O)[C@@H](CCC(=O)O)NC(=O)[C@@H](CCC(=O)O)NC(=O)[C@@H](CCC(=O)O)NC(=O)[C@@H](C)NC(=O)[C@@H](CCC(=O)O)NC(=O)[C@@H](CCC(=O)O)NC(=O)CN1CCN(CC(=O)O)CCN(CC(=O)O)CCN(CC(=O)O)CC1 [[^68Ga]Ga-2, metal not drawn] ({DOTA}-[dE][dE][dA][dE][dE][dE]AY[Sar]W[NMeNle]D[NMeF]-NH2)	−3.56 ± 0.01	no observable metabolites detected	no observable metabolites detected	–	–	–	–	–
CCCC[C@@H](C(=O)N[C@@H](CC(=O)O)C(=O)N(C)[C@@H](Cc1cccc2ccccc12)C(N)=O)N(C)C(=O)[C@H](Cc1c[nH]c2ccccc12)NC(=O)CN(C)C(=O)[C@H](Cc1ccc(O)cc1)NC(=O)[C@H](C)NC(=O)[C@@H](CCC(=O)O)NC(=O)[C@@H](CCC(=O)O)NC(=O)[C@@H](CCC(=O)O)NC(=O)[C@@H](C)NC(=O)[C@@H](CCC(=O)O)NC(=O)[C@@H](CCC(=O)O)NC(=O)CN1CCN(CC(=O)O)CCN(CC(=O)O)CCN(CC(=O)O)CC1 [[^68Ga]Ga-4, metal not drawn] ({DOTA}-[dE][dE][dA][dE][dE][dE]AY[Sar]W[NMeNle]D[NMe1Nal]-NH2)	−2.59 ± 0.02	no observable metabolites detected	no observable metabolites detected	–	–	–	–	best tumour to kidney ratio
